Read-outs that look alike come from different tables or passages of the source.
T1: B-domain of TRF2 (human, UniProt Q15554 43-86)
T1 chain: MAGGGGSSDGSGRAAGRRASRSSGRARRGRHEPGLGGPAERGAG

B1: R2 duplex (dsDNA)
DNA 1: GTTAGGGTTAGGGTTAG
DNA 2: CTAACCCTAACCCTAAC
B2: R5 duplex (dsDNA)
DNA 1: GTTAGGGTTAGGGTTAGGGTTAGGGTTAGGGTTAG
DNA 2: CTAACCCTAACCCTAACCCTAACCCTAACCCTAAC

Experiments:
B-domain of TRF2 = biological target: T1, B-domain of TRF2; experiment: SAXS
ΔBTRF2 [1] = biological target: T2, ΔBTRF2 (human, UniProt Q15554 87-542, del43-86); experiment: fluorescence anisotropy
T2 sequence (Q15554 87-542, stated change not applied): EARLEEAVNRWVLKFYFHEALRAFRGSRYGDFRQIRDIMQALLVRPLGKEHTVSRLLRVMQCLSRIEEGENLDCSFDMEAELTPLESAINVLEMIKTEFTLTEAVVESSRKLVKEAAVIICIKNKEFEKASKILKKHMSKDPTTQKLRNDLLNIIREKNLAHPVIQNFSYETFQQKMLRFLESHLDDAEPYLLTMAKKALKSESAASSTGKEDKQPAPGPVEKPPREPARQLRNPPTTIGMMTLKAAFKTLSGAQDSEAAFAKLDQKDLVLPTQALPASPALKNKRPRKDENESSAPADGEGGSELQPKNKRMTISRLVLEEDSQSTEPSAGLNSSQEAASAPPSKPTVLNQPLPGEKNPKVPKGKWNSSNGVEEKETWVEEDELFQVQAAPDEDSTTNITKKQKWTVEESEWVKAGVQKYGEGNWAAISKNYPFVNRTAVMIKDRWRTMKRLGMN

TRF2 [2] = biological target: T3, TRF2 (human, UniProt Q15554 43-542); experiment: fluorescence anisotropy
ΔBTRF2 [3] = biological target: T2, ΔBTRF2; experiment: fluorescence anisotropy; remark: listed apart in the source
TRF2 [4] = biological target: T3, TRF2; experiment: fluorescence anisotropy; remark: listed apart in the source

Row | Binder | binding result (B-domain of TRF2) | binding result (ΔBTRF2 [1]) | binding signal (TRF2 [2]) [fold lower Kd than ΔBTRF2] | binding signal (ΔBTRF2 [3]) [fold higher Kd than TRF2] | binding signal (TRF2 [4]) [fold lower Kd than ΔBTRF2]
1 | B1 | binds | binds | ~2 | – | –
2 | B2 | – | – | – | ~2 | ~2
